Here are results for six sequences from patent US9526791B2, “Weakly acidic pH-responsive peptide and liposome containing same” (Taiho Pharmaceutical Co., Ltd., priority 2012, dated 2016).

Read-outs that look alike come from different tables or passages of the source.

Data set [1] is classed as physicochemical. To be noted: for Leakage of calcein (in words): pH 6.5 (pH changed from 7.4 to 6.5); for Calcein leakage rate (%): calcein-encapsulated liposome, 37° C., 10 minutes. As for the experimental part: • (1) After a peptide-containing lipid membrane was prepared as in Example 4, a calcein (Mw: 622.55) 30-mM solution was added, and calcein-encapsulated liposome 1 was prepared as in Example 4. Unencapsulated calcein was removed by gel filtration (Sephadex G50).
To measure the leakage of the encapsulated calcein from the liposomes, the liposomes were diluted and suspended in buffers having different pHs, and then incubated at 37° C. for 10 minutes. The fluorescence (λex: 488 nm, λem: 517 nm) of the leaked calcein was measured by a plate reader (Infinite M200, produced by Tecan). The fluorescence of the leaked calcein when the liposomes were mixed with 1% Triton-X100 was regarded as complete leakage. The leakage rate was calculated by the following formula. […] Leakage rate(%)=(Fsample−FpH 7.4)/(Ftriton−FpH 7.4)×100
Fsample Fluorescence of calcein leaked from the liposomes at each pH
FpH 7.4: Fluorescence of calcein leaked from the liposomes at a pH of 7.4
Ftriton: Fluorescence of calcein when the liposomes were mixed with 1% Triton-X100.
Calcein was encapsulated in liposome 1 obtained in Example 4, and liposomes 2 and 3 obtained in Example 5, and pH responsiveness was examined as in Test Example 1.
The calcein leakage rate of the calcein-encapsulated liposomes obtained in Examples 4, 6, and 7, and Comparative Examples 4 to 6 at a pH of 7.4 and a pH of 6.5 was calculated as in Test Example 1.

A short description of data set [2]: Observation of liposomes into which comparative compound 3 was introduced (aggregation). It counts as physicochemical. To be noted: pH 6.5 or less. The procedure: Comparative liposome 3 into which comparative compound 3 obtained in Comparative Example 3 had been introduced was produced according to the method described in Example 4, and calcein-encapsulated comparative liposome 3 was prepared by the same production method as in Test Example 1.
Thus, the pH-responsiveness was insufficient.

Data set [3] is described as follows: CD spectra of peptide alone or peptide-introduced liposome under different pH conditions. To be noted: PBS (−), peptide concentration 20 μM. Format: physicochemical. As for the experimental part: Peptide compound 1 obtained in Example 1 alone and a peptide-introduced liposome obtained according to Example 4 (each having a peptide concentration of 20 μM) were suspended in PBS (−) with different pHs, and CD (circular dichroism) spectra were recorded on a J-720WI spectropolarimeter (produced by JASCO Corporation).
The “α-helix” represents an α-helix structure, and the “random coil structure” represents a state in which a clear secondary structure is not formed.

With HGHGLALLAHALLAHAAAAL [compound 3], the “Calcein fluorescence on attempted encapsulation (liposome stability)” value in data set [1] (pH 7.4) is “fluorescence intensity at the same level as that when Triton treatment was performed”. For the same sequence, the Aggregation of liposomes entry in data set [2] was “remarkably aggregated”.
In the case of HGHGGGGGGGGGAHALLAHAALAH [compound 2], in data set [1], the “Leakage of calcein (in words)” value is given as “remarkably reduced”. Moreover, the “Calcein leakage rate (%)” value in data set [1] (pH 6.5) was 30%; in data set [1] (pH 7.4), 0%.
For HHGGLLLLHHHAAAAALLLAAAAA [compound 1], the “Leakage of calcein (in words)” value in data set [1] is “remarkably reduced”. The “Calcein leakage rate (%)” value in data set [1] (pH 6.5) is 30%; in data set [1] (pH 7.4), 0%.
In the case of “EGEGLALLAHALLAHAALAHAALA [Peptide compound 3]”, the “Calcein leakage rate (%)” value is on record as 65% in data set [1] (pH 6.5) and 0% in data set [1] (pH 7.4).
For “HGHGLALLAHALLAHAALAHAALA [Peptide compound 1]”, the entries for the “Secondary structure from CD spectrum” value in data set [3] (as the pH was reduced) and in data set [3] (pH 7.4) were “sequentially converted into a random coil structure” and “α-helix”, respectively. Also, the “Calcein leakage rate (%)” value in data set [1] (pH 6.5) is listed as 100%; in data set [1] (pH 7.4), 0%.
“GHHGLALLHALHLAAAALHAAALA [Peptide compound 2]”: the “Calcein leakage rate (%)” value in data set [1] (pH 6.5) is 90%; in data set [1] (pH 7.4), 0%.
